Results reported in PMC6570480, “PLK4 promotes centriole duplication by phosphorylating STIL to link the procentriole cartwheel to the microtubule wall” (eLife, 2019).

T1: Myc-GFP-Ana2 (WT) co-expressed with stabilized DmPLK4^SBM-mCherry (D. melanogaster, UniProt Q9XZ31 1-420, phosphorylated in cells by co-expressed DmPLK4^SBM-mCherry; phosphoserine at 38 (a DmPLK4 site by the cited work))
T1 construct: Ana2, D. melanogaster; it rests on the S38A mutant; also called WT Ana2; phosphorylated Ana2; source: Drosophila S2 cells, transfected together with DmPLK4^SBM-mCherry, in lysate; not shown: Myc, N-terminal, kept; GFP, N-terminal, kept
T1 sequence (looked up): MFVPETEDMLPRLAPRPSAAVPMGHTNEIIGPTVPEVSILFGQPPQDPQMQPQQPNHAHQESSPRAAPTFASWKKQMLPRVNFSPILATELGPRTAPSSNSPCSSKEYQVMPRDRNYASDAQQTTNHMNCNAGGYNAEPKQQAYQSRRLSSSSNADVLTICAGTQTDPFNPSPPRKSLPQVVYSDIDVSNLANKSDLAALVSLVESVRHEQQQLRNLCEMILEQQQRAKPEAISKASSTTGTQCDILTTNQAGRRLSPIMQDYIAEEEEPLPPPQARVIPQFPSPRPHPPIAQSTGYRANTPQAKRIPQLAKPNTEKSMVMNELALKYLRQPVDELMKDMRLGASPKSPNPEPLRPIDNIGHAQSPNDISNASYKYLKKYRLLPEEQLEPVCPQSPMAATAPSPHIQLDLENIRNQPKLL

T2: Myc-GFP-STIL (wild type) phosphorylated in cells by co-expressed kinase active PLK4^Δ24-mCherry (human, UniProt Q15468 1-1287, phosphoserine at 428 and at 1116 (phosphorylated in cells by co-expressed kinase active PLK4^Δ24-mCherry; shown with pS428 and pS1116 antibodies))
T2 construct: STIL, human; Further PLK4 sites may be phosphorylated (84 sites were found in vitro); also called WT STIL; phosphorylated STIL; source: HEK293FT, transfected together with kinase active PLK4^Δ24-mCherry, in lysate; not shown: Myc, N-terminal, kept; GFP, N-terminal, kept
T2 sequence (looked up): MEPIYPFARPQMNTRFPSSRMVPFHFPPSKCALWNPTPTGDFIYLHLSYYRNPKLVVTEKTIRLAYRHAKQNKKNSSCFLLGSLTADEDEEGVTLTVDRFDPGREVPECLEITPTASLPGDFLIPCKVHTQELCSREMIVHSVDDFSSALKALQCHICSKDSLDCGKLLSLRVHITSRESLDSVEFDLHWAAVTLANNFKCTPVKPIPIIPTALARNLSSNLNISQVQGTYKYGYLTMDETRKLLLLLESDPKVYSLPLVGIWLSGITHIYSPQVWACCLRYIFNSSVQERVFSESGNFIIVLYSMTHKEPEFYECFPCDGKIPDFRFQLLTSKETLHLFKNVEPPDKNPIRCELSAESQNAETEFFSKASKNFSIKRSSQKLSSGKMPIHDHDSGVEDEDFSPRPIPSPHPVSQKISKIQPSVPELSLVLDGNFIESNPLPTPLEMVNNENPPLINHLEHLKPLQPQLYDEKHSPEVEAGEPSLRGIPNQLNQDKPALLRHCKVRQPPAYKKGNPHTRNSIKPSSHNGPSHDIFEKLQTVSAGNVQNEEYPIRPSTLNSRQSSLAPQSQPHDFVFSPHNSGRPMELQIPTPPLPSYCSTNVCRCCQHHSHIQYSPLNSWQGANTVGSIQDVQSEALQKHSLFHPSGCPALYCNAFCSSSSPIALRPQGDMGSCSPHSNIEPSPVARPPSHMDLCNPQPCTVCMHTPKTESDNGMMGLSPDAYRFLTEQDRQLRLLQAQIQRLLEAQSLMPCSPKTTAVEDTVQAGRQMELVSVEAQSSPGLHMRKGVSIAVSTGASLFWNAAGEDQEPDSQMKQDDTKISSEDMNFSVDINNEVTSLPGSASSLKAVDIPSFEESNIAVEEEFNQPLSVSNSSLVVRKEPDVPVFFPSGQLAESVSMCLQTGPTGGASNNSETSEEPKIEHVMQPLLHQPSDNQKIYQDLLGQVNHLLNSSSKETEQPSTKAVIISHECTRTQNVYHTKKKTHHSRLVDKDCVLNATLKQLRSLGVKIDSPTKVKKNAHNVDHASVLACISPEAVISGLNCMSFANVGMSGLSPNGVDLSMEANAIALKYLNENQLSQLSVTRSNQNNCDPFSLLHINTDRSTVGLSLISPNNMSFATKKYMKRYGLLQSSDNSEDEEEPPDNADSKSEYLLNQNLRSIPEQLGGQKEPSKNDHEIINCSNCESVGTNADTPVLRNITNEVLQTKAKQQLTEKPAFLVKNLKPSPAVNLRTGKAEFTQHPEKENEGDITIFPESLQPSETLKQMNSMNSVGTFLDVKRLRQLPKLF


How the values were obtained:
[1] = biological target: T1, Myc-GFP-Ana2 (WT) co-expressed with …; assay: co-IP; Drosophila S2 cells transfected with Myc-GFP-Ana2 and Flag-DmSas4 in the presence or absence of DmPLK4^SBM-mCherry; harvested 48 hr later; co-immunoprecipitation and immunoblot; conditions: partners not purified
[2] = biological target: T2, Myc-GFP-STIL (wild type) phosphorylated …; assay: co-IP; HEK293FT cells co-transfected, with kinase active or kinase dead PLK4^Δ24-mCherry where stated; lysis buffer 10 mM Tris pH 7.5, 0.1% Triton X-100, 250 mM NaCl, 1 mM EDTA, phosphatase inhibitors; Myc-GFP-STIL captured on beads coupled to GFP-binding protein; immunoblot; conditions: partners not purified

Row | fold increase in the amount of DmSas4 bound, with against without DmPLK4^SBM [1] | fold increase in the amount of CPAP bound, kinase active against kinase inactive PLK4 [2] | Binder
1 | > 6 fold |  | Flag-DmSas4 (natural protein, D. melanogaster, UniProt Q9VI72 1-901, looked up, Sas-4 (DmSas4), D. melanogaster; also called CPAP orthologue DmSas4; source: Drosophila S2 cells, transfected, in lysate; not shown: FLAG, N-terminal, kept) MQEAGESPVGMPLSQEAIAQRLAALSRWQDEQKRLLQERQSNHRVLLGLEQRNMYKMLGLLHQETESHENSVLEEWDEEHSIQMPRLAADPDEHEPEISMADPQPAKPKRPFLRRGEGLKQRFKINPDQLRLENLPRYKFANAHPQFRTPQMKKGILKKQVKSPPNPAPPPAPKPSAQLDDLNEQRFQQMLIGKNACSSTPDLKSSYASSTTASSTSPRVRFVEQKSRAGQTTHADDEASSEASPMTGVCWAKVLDTQSIKPAQIQRRSAQIRVEDDSNVSIFELLEQKATEGNIDMNSSCIRTFMARKDQRRRVADDSDHIVVTQQVRQMRLQPQVDQMLVQELQEGDEEDTEPSSDQTLTMTPIQVGNTKVRVRFSDSNDTHEYSDATSLNDGSNIQLFEQFKSALFQALEQKKKSSPSKESDEPITKDLQEKANLVRTRLEELETEIATFKEQNAQLLRLRQQHELEKAKCTQDHMEAMERVHDEKIQAEIYLHDERMKIEEERRKFEQQMRLQKSNANSKEKKEIAALKQEVEGLQLQLKQKEQAHVSAQARLRAQLRASEKEQRNYRDEIELLRKENKRLEQELVKIGRENNSKMLQEINRNIARLAPKVLPSATMSDILDENGRRTQSLDGTAGKPAKQREAQNRRQSSGSAQVRSRSRSLSRNKKTPYALDESYASSSSVESEEVQPPVTAPKAATPPPAANSSSDFKREITNADGSKDIWYPNGNLKKISADGMNLRMLYFNKDIKETNIREGTVKYYYAETNTWHTSYLDGLEILEFPNGQTEHRRKDGTVEIHFPNNSIKIVDPSDTEKLEEWRYADGTHLVQLRNGDKILNLPNGQKEIHTKLNKRREYPDGTVKLVYPDGSQETRYSNGRVRLKDKDGKLIMDTDYAKY
2 |  | > 7 fold | FLAG-CPAP (natural protein, human, UniProt Q9HC77 1-1338, looked up, CPAP (CENPJ), human; also called CENPJ; source: HEK293FT, transfected, in lysate; not shown: FLAG, N-terminal, kept) MFLMPTSSELNSGQNFLTQWMTNPSRAGVILNRGFPILEADKEKRAAVDISTSFPIKGTHFSDSFSFINEEDSLLEEQKLESNNPYKPQSDKSETHTAFPCIKKGPQVAACHSAPGHQEENKNDFIPDLASEFKEGAYKDPLFKKLEQLKEVQQKKQEQLKRQQLEQLQRLMEEQEKLLTMVSGQCTLPGLSLLPDDQSQKHRSPGNTTTGERATCCFPSYVYPDPTQEETYPSNILSHEQSNFCRTAHGDFVLTSKRASPNLFSEAQYQEAPVEKNNLKEENRNHPTGESILCWEKVTEQIQEANDKNLQKHDDSSEVANIEERPIKAAIGERKQTFEDYLEEQIQLEEQELKQKQLKEAEGPLPIKAKPKQPFLKRGEGLARFTNAKSKFQKGKESKLVTNQSTSEDQPLFKMDRQQLQRKTALKNKELCADNPILKKDSKARTKSGSVTLSQKPKMLKCSNRKSLSPSGLKIQTGKKCDGQFRDQIKFENKVTSNNKENVTECPKPCDTGCTGWNKTQGKDRLPLSTGPASRLAAKSPIRETMKESESSLDVSLQKKLETWEREKEKENLELDEFLFLEQAADEISFSSNSSFVLKILERDQQICKGHRMSSTPVKAVPQKTNPADPISHCNRSEDLDHTAREKESECEVAPKQLHSLSSADELREQPCKIRKAVQKSTSENQTEWNARDDEGVPNSDSSTDSEEQLDVTIKPSTEDRERGISSREDSPQVCDDKGPFKDTRTQEDKRRDVDLDLSDKDYSSDESIMESIKHKVSEPSRSSSLSLSKMDFDDERTWTDLEENLCNHDVVLGNESTYGTPQTCYPNNEIGILDKTIKRKIAPVKRGEDLSKSRRSRSPPTSELMMKFFPSLKPKPKSDSHLGNELKLNISQDQPPGDNARSQVLREKIIELETEIEKFKAENASLAKLRIERESALEKLRKEIADFEQQKAKELARIEEFKKEEMRKLQKERKVFEKYTTAARTFPDKKEREEIQTLKQQIADLREDLKRKETKWSSTHSRLRSQIQMLVRENTDLREEIKVMERFRLDAWKRAEAIESSLEVEKKDKLANTSVRFQNSQISSGTQVEKYKKNYLPMQGNPPRRSKSAPPRDLGNLDKGQAASPREPLEPLNFPDPEYKEEEEDQDIQGEISHPDGKVEKVYKNGCRVILFPNGTRKEVSADGKTITVTFFNGDVKQVMPDQRVIYYYAAAQTTHTTYPEGLEVLHFSSGQIEKHYPDGRKEITFPDQTVKNLFPDGQEESIFPDGTIVRVQRDGNKLIEFNNGQRELHTAQFKRREYPDGTVKTVYANGHQETKYRSGRIRVKDKEGNVLMDTEL
